# Target: AL1 ZFP (Clone 1) (artificial)
# Experiment: EMSA; significant binding at 14-35 nM; text prints SEQ ID NO 27 for the bound probe, apparently meaning the G (wild-type) probe SEQ ID NO 26
# Conditions: tags: three Sp1C domain 2 framework fingers, pET21-a, E. coli BL21(DE3)pLysS; label: 5'-32P
# Chain of AL1 ZFP (Clone 1) (artificial) (chain, as listed by the source): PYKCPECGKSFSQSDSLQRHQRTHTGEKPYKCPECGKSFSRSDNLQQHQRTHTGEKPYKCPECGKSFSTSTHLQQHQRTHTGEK
binder,measurement,value
AL1 probe G (wild type) (dsDNA) DNA 1: TATATATAAGTAAGGTAGTATATATA DNA 2: TATATATACTACCTTACTTATATATA,binding result,binds
